{"source": "paper PMC5042876", "proteins": {"B1": {"name": "wild-type PntM (Streptomyces arenae) (protein)", "chain": "MTDLPRLPFDNPDIMGIAPQMLALQKEGPIARVGTAGEDAWLVTRYDEVRTLLADRRLRLSNPNPQPSAKSAARAFMVALMAGDDHETEPARHAQMRSLLIPRFSTRRLRLMKTRIEHHVDELLDQLAASAPPVDLHRVLSFRLPTMVVCDLLGVPLADRERFGQWARGTFDQSDNEHSANTFQQVVDYMLELVARKRVEPGDDILSELIAEKDGALSDADIAHLGNAVLLFGYETTIVRIDLGTLLLLRNPVQRAQLAEDPGLAPAAVEEILRLGVGGKGSNALIPRYAHGDITVGETVIRTGDAVMLAIGAANYDDRAFPDGGLFDLTRVRPRSHLAFGHGARHCIGRTLARIELTAVFERLFRRLPDLRLAVPEESLRWQEHRITGGFDEIPVTF"}, "B2": {"name": "PntM F232A (Streptomyces arenae; F232A) (protein)", "chain": "MTDLPRLPFDNPDIMGIAPQMLALQKEGPIARVGTAGEDAWLVTRYDEVRTLLADRRLRLSNPNPQPSAKSAARAFMVALMAGDDHETEPARHAQMRSLLIPRFSTRRLRLMKTRIEHHVDELLDQLAASAPPVDLHRVLSFRLPTMVVCDLLGVPLADRERFGQWARGTFDQSDNEHSANTFQQVVDYMLELVARKRVEPGDDILSELIAEKDGALSDADIAHLGNAVLLAGYETTIVRIDLGTLLLLRNPVQRAQLAEDPGLAPAAVEEILRLGVGGKGSNALIPRYAHGDITVGETVIRTGDAVMLAIGAANYDDRAFPDGGLFDLTRVRPRSHLAFGHGARHCIGRTLARIELTAVFERLFRRLPDLRLAVPEESLRWQEHRITGGFDEIPVTF"}, "B3": {"name": "PntM F232L (Streptomyces arenae; F232L) (protein)", "chain": "MTDLPRLPFDNPDIMGIAPQMLALQKEGPIARVGTAGEDAWLVTRYDEVRTLLADRRLRLSNPNPQPSAKSAARAFMVALMAGDDHETEPARHAQMRSLLIPRFSTRRLRLMKTRIEHHVDELLDQLAASAPPVDLHRVLSFRLPTMVVCDLLGVPLADRERFGQWARGTFDQSDNEHSANTFQQVVDYMLELVARKRVEPGDDILSELIAEKDGALSDADIAHLGNAVLLLGYETTIVRIDLGTLLLLRNPVQRAQLAEDPGLAPAAVEEILRLGVGGKGSNALIPRYAHGDITVGETVIRTGDAVMLAIGAANYDDRAFPDGGLFDLTRVRPRSHLAFGHGARHCIGRTLARIELTAVFERLFRRLPDLRLAVPEESLRWQEHRITGGFDEIPVTF"}, "B4": {"name": "PntM M81A (Streptomyces arenae; M81A) (protein)", "chain": "MTDLPRLPFDNPDIMGIAPQMLALQKEGPIARVGTAGEDAWLVTRYDEVRTLLADRRLRLSNPNPQPSAKSAARAFMVALAAGDDHETEPARHAQMRSLLIPRFSTRRLRLMKTRIEHHVDELLDQLAASAPPVDLHRVLSFRLPTMVVCDLLGVPLADRERFGQWARGTFDQSDNEHSANTFQQVVDYMLELVARKRVEPGDDILSELIAEKDGALSDADIAHLGNAVLLFGYETTIVRIDLGTLLLLRNPVQRAQLAEDPGLAPAAVEEILRLGVGGKGSNALIPRYAHGDITVGETVIRTGDAVMLAIGAANYDDRAFPDGGLFDLTRVRPRSHLAFGHGARHCIGRTLARIELTAVFERLFRRLPDLRLAVPEESLRWQEHRITGGFDEIPVTF"}, "B5": {"name": "PntM M81C (Streptomyces arenae; M81C) (protein)", "chain": "MTDLPRLPFDNPDIMGIAPQMLALQKEGPIARVGTAGEDAWLVTRYDEVRTLLADRRLRLSNPNPQPSAKSAARAFMVALCAGDDHETEPARHAQMRSLLIPRFSTRRLRLMKTRIEHHVDELLDQLAASAPPVDLHRVLSFRLPTMVVCDLLGVPLADRERFGQWARGTFDQSDNEHSANTFQQVVDYMLELVARKRVEPGDDILSELIAEKDGALSDADIAHLGNAVLLFGYETTIVRIDLGTLLLLRNPVQRAQLAEDPGLAPAAVEEILRLGVGGKGSNALIPRYAHGDITVGETVIRTGDAVMLAIGAANYDDRAFPDGGLFDLTRVRPRSHLAFGHGARHCIGRTLARIELTAVFERLFRRLPDLRLAVPEESLRWQEHRITGGFDEIPVTF"}, "B6": {"name": "PntM M77S (Streptomyces arenae; M77S) (protein)", "chain": "MTDLPRLPFDNPDIMGIAPQMLALQKEGPIARVGTAGEDAWLVTRYDEVRTLLADRRLRLSNPNPQPSAKSAARAFSVALMAGDDHETEPARHAQMRSLLIPRFSTRRLRLMKTRIEHHVDELLDQLAASAPPVDLHRVLSFRLPTMVVCDLLGVPLADRERFGQWARGTFDQSDNEHSANTFQQVVDYMLELVARKRVEPGDDILSELIAEKDGALSDADIAHLGNAVLLFGYETTIVRIDLGTLLLLRNPVQRAQLAEDPGLAPAAVEEILRLGVGGKGSNALIPRYAHGDITVGETVIRTGDAVMLAIGAANYDDRAFPDGGLFDLTRVRPRSHLAFGHGARHCIGRTLARIELTAVFERLFRRLPDLRLAVPEESLRWQEHRITGGFDEIPVTF"}, "B7": {"name": "PntM M81C-BME (Streptomyces arenae; M81C) (protein)", "chain": "MTDLPRLPFDNPDIMGIAPQMLALQKEGPIARVGTAGEDAWLVTRYDEVRTLLADRRLRLSNPNPQPSAKSAARAFMVALCAGDDHETEPARHAQMRSLLIPRFSTRRLRLMKTRIEHHVDELLDQLAASAPPVDLHRVLSFRLPTMVVCDLLGVPLADRERFGQWARGTFDQSDNEHSANTFQQVVDYMLELVARKRVEPGDDILSELIAEKDGALSDADIAHLGNAVLLFGYETTIVRIDLGTLLLLRNPVQRAQLAEDPGLAPAAVEEILRLGVGGKGSNALIPRYAHGDITVGETVIRTGDAVMLAIGAANYDDRAFPDGGLFDLTRVRPRSHLAFGHGARHCIGRTLARIELTAVFERLFRRLPDLRLAVPEESLRWQEHRITGGFDEIPVTF"}}, "substrate": "CC1(C)C[C@H]2C=C(C(=O)O)[C@@H]3COC(=O)[C@]4(CO4)[C@]23C1", "experiment": "purified protein, by the assay type", "details": "30 °C", "data": [{"protein": "B1", "values": [{"measurement": "Km", "setting": "other: Wild-type, pH 8.0", "result": "36 ± 14", "unit": "µM"}, {"measurement": "kcat", "setting": "other: Wild-type, pH 8.0", "result": 0.03, "unit": "s⁻¹"}, {"measurement": "kcat/Km", "setting": "other: Wild-type, pH 8.0", "result": 833, "unit": "M⁻¹ s⁻¹"}]}, {"protein": "B2", "values": [{"measurement": "Km", "setting": "other: F232A, pH 8.0, n=1", "result": "43 ± 5", "unit": "µM"}, {"measurement": "kcat", "setting": "other: F232A, pH 8.0, n=1", "result": 0.000583, "unit": "s⁻¹"}, {"measurement": "kcat/Km", "setting": "other: F232A, pH 8.0, n=1", "result": 13.7, "unit": "M⁻¹ s⁻¹"}]}, {"protein": "B3", "values": [{"measurement": "Km", "setting": "other: F232L, pH 8.0", "result": "12.0 ± 3", "unit": "µM"}, {"measurement": "kcat", "setting": "other: F232L, pH 8.0", "result": 0.0015, "unit": "s⁻¹"}, {"measurement": "kcat/Km", "setting": "other: F232L, pH 8.0", "result": 125, "unit": "M⁻¹ s⁻¹"}]}, {"protein": "B4", "values": [{"measurement": "Km", "setting": "other: M81A, pH 8.0", "result": "37 ± 6", "unit": "µM"}]}, {"protein": "B5", "values": [{"measurement": "Km", "setting": "other: M81C, pH 8.0", "result": "19 ± 3", "unit": "µM"}, {"measurement": "kcat", "setting": "other: M81C, pH 8.0", "result": 0.00153, "unit": "s⁻¹"}, {"measurement": "kcat/Km", "setting": "other: M81C, pH 8.0", "result": 81.7, "unit": "M⁻¹ s⁻¹"}]}, {"protein": "B6", "values": [{"measurement": "Km", "setting": "other: M77S, pH 8.0", "result": "19 ± 4", "unit": "µM"}, {"measurement": "kcat", "setting": "other: M77S, pH 8.0", "result": 0.000317, "unit": "s⁻¹"}, {"measurement": "kcat/Km", "setting": "other: M77S, pH 8.0", "result": 16.7, "unit": "M⁻¹ s⁻¹"}]}, {"protein": "B7", "values": [{"measurement": "Km", "setting": "other: M81C-BME, pH 8.0", "result": "280 ± 110", "unit": "µM"}, {"measurement": "kcat", "setting": "other: M81C-BME, pH 8.0", "result": 0.00142, "unit": "s⁻¹"}, {"measurement": "kcat/Km", "setting": "other: M81C-BME, pH 8.0", "result": 5, "unit": "M⁻¹ s⁻¹"}]}]}
